According to publication PMC11808191:

Tests used:
[1] = molecular target: recombinant protein HR212 (HR2–linker 1–HR1–linker 2–HR2) (SARS-CoV-2 Wuhan hu-1 strain); test: SPR; Biacore 3000; HR212 fixed to a flow cell of a CM5 sensor; HR1 at 12.5, 25, 50, 100, 200 nM flowed over; 25°C
[2] = molecular target: recombinant protein HR212 (HR2–linker 1–HR1–linker 2–HR2) (SARS-CoV-2 Wuhan hu-1 strain); test: native gel or EMSA; native PAGE of purified HR212

Substance	Kd [1] [nM]	koff [1] [s⁻¹]	kon [1] [M⁻¹ s⁻¹]	stoichiometry N [2]
HR1 (heptad repeat 1 domain of the SARS-CoV-2 spike S2 subunit) (domain or fragment)	0.12	1.4e-05	120000	–
recombinant protein HR212 (HR2–linker 1–HR1–linker 2–HR2)	–	–	–	3
